From patent publication US20040170622A1, “Methods and compositions for modulating XBP-1 activity” (President and Fellows of Harvard College, priority 2002, published 2004)
Where a SMILES comes first, the peptide text is derived from it. The star is where a group is joined. Cbz = O=C(OCc1ccccc1)*

B1: dn-XBP: dominant negative XBP-1 containing the N-terminal 188 aa, lacking transactivation domain, retaining leucine zipper (protein)
chain: MVVVAAAPSAATAAPKVLLLSGQPASGGRALPLMVPGPRAAGSEASGTPQARKRQRLTHLSPEEKALRRKLKNRVAAQTARDRKKARMSELEQQVVDLEEENHKLQLENQLLREKTHGLVVENQELRTRLGMDTLDPDEVPEVEAKGSGVRLVAGSAESAAGAGPVVTSPEHLPMDSDTVASSDSESD

Assays:
Type in all cases: cell-based
XBP-1 protein = XBP-1 protein species in MOPC315 and MM.1S myeloma cells treated with proteasome inhibitors (Western blot); conditions: mouse myeloma MOPC315 and human myeloma MM.1S
Description: A variety of reversible and irreversible inhibitors that inhibit degradation of proteins by the ubiquitin-proteasome pathway have recently been identified. Proteasome inhibitors MG132 and PS341 block the rapid degradation of ubiquitinated proteins such as unspliced, but not spliced XBP-1. Myeloma cells express primarily spliced XBP-1 protein as expected. […] In this experiment lysates from MOPC315 cells were untreated or treated for 6 hours with 5 ug/ml of tunicamycin or 20 uM of MG-132 and were analyzed for the presence of XBP-1 using XBP-1 antibody. The two forms of XBP-1 were distinguished by their molecular weight.
In the presence of proteasome inhibitors, unspliced XBP-1 protein accumulates in the cell and is present at higher levels than the spliced protein. Lysates from Mm. 1S cells were untreated or treated for 1, 4, or 8 hours with 20 uM of PS-341 and were analyzed by western blotting with anti-XBP-1 antibody. Because unspliced, but not spliced XBP-1 is stabilized, the ratio of unspliced to spliced XBP-1 increases in cells treated with proteasome inhibitors.

UPR target genes = assay: UPR target gene induction by Tm in MEF-dn-XBP cells (Northern blot); conditions: 10 μg/ml Tm
Description: (A) The 5×ATF6GL3 reporter plasmid was cotransfected with either pCGNATF6α or XBP-u/s plasmids into MEF cells with or without the dominant negative XBP-1 expression plasmid. 100 ng DNA was used for each transfection except for pCDNA3.1, which was added to give 1 μg of DNA in total. Luciferase assays were performed as described in the legend to FIG. 18.(B) MEF and MEF-dn-XBP cells that stably express dominant negative XBP-1 protein were treated with 10 μg/ml Tm for the indicated time periods. Total RNAs were isolated and subjected to Northern blot analysis. The same blot was hybridized sequentially with BiP, CHOP, ERdj4, p58^ipk and ATF6α probes. Ethidium bromide staining of the gel before blotting is shown at the bottom as loading control.
293T and MEF cells derived from wild type and XBP-1^−/− embryos were cultured in DMEM supplemented with 10% fetal calf serum (Hyclone Laboratories). MEF-tet-off cells (Clontech) were maintained in the same media with the addition of 100 μg/ml G418 and 1 μg/ml doxycycline. XBP-1s inducible cells were obtained by transfecting MEF-tet-off cells with the TREhyg-XBP-1s plasmid and then selecting in the presence of 400 μg/ml hygromycin B. Several clones were tested for doxycycline-dependent XBP-1s expression, and one was selected for further experiments. MEF-dn-XBP cells were generated by transfecting MEF-tet-off cells with the TREhyg-dn-XBP plasmid. […]

XBP-1 = XBP-1 dependent gene expression in dn-XBP / iXBP transduced J558 cells (Northern, Western blot)
Source text: (A) Synergistic effect of Tm and MG-132 on apoptosis. Annexin V positive cells were counted after treating J558 cells for 18 hrs with suboptimal concentrations of Tm and MG-132 as indicated. (B) J558-iXBP cells were generated by retroviral transduction of J558 cells with the U6 promoter based XBP-1 RNAi vector. (C) XBP-1 dependent gene expression in J558 cells that express control GFP, dn-XBP or iXBP-1 treated with Tm. Generation of dn-XBP-1 J558 cells by infection with a retrovirus containing dn-XBP cDNA inserted into the GFP-RV vector (N. N. lwakoshi et al., Nature Immunology 4, 321-329 (2003)). ERdj4, p58^IPK, BiP and CHOP gene expression were examined by Northern blot analysis. (D) Increased apoptosis in iXBP-1 and dn-XBP-1 expressing J558 cells. Cells were treated with the indicated amounts of Tm for 48 hrs and dead cells counted after Annexin V staining.
Total RNA was prepared by using Trizol reagent, electrophoresed on 1.2% agarose, 6% formaldehyde gels and then transferred onto Genescreen Plus membrane, (NEN, Boston, Mass.). […] Probes for ERdj4 and p58^IPK were generated from cDNA excised from EST clones (ATCC, Manassas, Va.) using appropriate restriction enzymes (ERdj4, IMAGE: 1920927; p58^IPK, IMAGE:2646147). […]

Molecule | amount of unspliced XBP-1 protein (XBP-1 protein) | levels of active spliced XBP-1 protein (XBP-1 protein) | induction of CHOP by Tm (UPR target genes) | induction of ERdj4 and p58ipk by Tm (UPR target genes) | induction of BiP and CHOP by Tm (XBP-1) | induction of ERdj4 and p58IPK by Tm (XBP-1)
CC(C)C[C@@H](C=O)NC(=O)[C@H](CC(C)C)NC(=O)[C@H](CC(C)C)NC(=O)OCc1ccccc1 [MG-132] (Cbz-Leu-Leu-Leu-aldehyde) | dramatic increase in the amount of unspliced XBP-1 protein | concomitant decrease in levels of the active spliced XBP-1 protein | – | – | – | –
B1 | – | – | suppressed the induction of CHOP | significantly suppressed the induction of XBP-1 target genes, ERdj4 and p58^ipk | minimally affected | greatly reduced induction of XBP-1-dependent UPR target genes, ERdj4 and p58^IPK
